We go through 2 proteins from PMC1839085, “Crystal structures of an Extracytoplasmic Solute Receptor from a TRAP transporter in its open and closed forms reveal a helix-swapped dimer requiring a cation for α-keto acid binding” (BMC Structural Biology, 2007).

Data set [1] concerns the molecule itself. In words: crystal structure; unliganded SeMet TakP, space group P2(1), four molecules in the asymmetric unit; hanging drop, 293 K, 100 mM sodium citrate pH 5.8-6.0, 1.4-1.6 M ammonium sulfate; solved by MAD.
Data set [2] concerns the molecule itself. The data set is described as follows: cross-linking; 3.2 and 6.3 μM TakP with 50 mM glutaraldehyde, 20 mM Na2HPO4/KH2PO4 pH 7.8, 18°C, 3 hours; denaturing 10% Nu-PAGE gel; dimer to monomers.
Data set [3] concerns the molecule itself. In words: SEC; gel filtration on Superdex 200 26/60 in 20 mM Tris HCl pH 8.0, 50 mM NaCl, calibrated with commercial standards. For orientation: SEC sorts molecules by how far they enter the pores of the column.

B1: Selenomethionine-labeled TakP from Rhodobacter sphaeroides (natural protein, Rhodobacter sphaeroides 2.4.1)
chain: QSAPKVTWRLASSFPKSLDTIFGGAEVLSKMLSEATDGNFQIQVFSAGELVPGLQAADAVTEGTVECCHTVGYYYWGKDPTFALAAAVPFSLSARGINAWHYHGGGIDLYNEFLSQHNIVAFPGGNTGVQMGGWFRREINTVADMQGLKMRVGGFAGKVMERLGVVPQQIAGGDIYPALEKGTIDATEWVGPYDDEKLGFFKVAPYYYYPGWWEGGPTVHFMFNKSAYEGLTPTYQSLLRTACHAADANMLQLYDWKNPTAIKSLVAQGTQLRPFSPEILQACFEAANEVYAEMEASNPAFKKIWDSIKAFRSEHYTWAQIAEYNYDTFMMVQQNAGKL
modifications: selenomethionine (SeMet) labeled
notes: TakP (previously named SmoM), Rhodobacter sphaeroides 2.4.1; same construct as m1 (pET101/D-TOPO, 1099 bp fragment), labeled with selenomethionine; final model holds four molecules from residue 28 or 32 to 365; Same construct as m1, with methionines replaced by selenomethionine; used for the unliganded MAD structure (PDB 2HZK); also called SeMet TakP; selenomethionine labeled protein; source: E. …
As to B1, the binding result in data set [1] was “binds”.

B2: TakP (TRAP transporter alpha-keto acid binding P subunit) from Rhodobacter sphaeroides (natural protein, Rhodobacter sphaeroides 2.4.1)
chain: QSAPKVTWRLASSFPKSLDTIFGGAEVLSKMLSEATDGNFQIQVFSAGELVPGLQAADAVTEGTVECCHTVGYYYWGKDPTFALAAAVPFSLSARGINAWHYHGGGIDLYNEFLSQHNIVAFPGGNTGVQMGGWFRREINTVADMQGLKMRVGGFAGKVMERLGVVPQQIAGGDIYPALEKGTIDATEWVGPYDDEKLGFFKVAPYYYYPGWWEGGPTVHFMFNKSAYEGLTPTYQSLLRTACHAADANMLQLYDWKNPTAIKSLVAQGTQLRPFSPEILQACFEAANEVYAEMEASNPAFKKIWDSIKAFRSEHYTWAQIAEYNYDTFMMVQQNAGKL
notes: TakP (previously named SmoM), extracytoplasmic solute receptor (P subunit) of a TRAP transporter, Rhodobacter sphaeroides 2.4.1; gene amplified from genomic DNA as a 1099 bp fragment and cloned into pET101/D-TOPO; crystal models span residues 28 or 32 to 365; The 1099 bp fragment would fit the whole gene of 365 codons, so the signal peptide may be in the construct; The theoretical molecular …
On to B2, for which the Kd in data set [2] is less than 300 nM. For the same protein, the “stoichiometry N” value in data set [3] came out at 2.

Broadly, the Kd is the constant that tells how readily two partners part at equilibrium. By stoichiometry N is commonly meant the number of molecules, sites or subunits per partner or assembly.
